B1: CG51896-10, intracellular domain, aa 805-1047, Binding Domain (BD) fusion (other, not shown: large carriers)
chain: TKDMPPMGSPVIPTDLPLRASPSHIPSVVVLPITQQGYQHEYVDQPKMSEVAQMALEDQAATLEYKTIKEHLSSKSPNHGVNLVENLDSLPPKVPQREASLGPPGASLSQTGLSKRLEMHHSSSYGVDYKRSYPTNSLTRSHQATTLKRNNTNSSNSSHLSRNQSFGRGDNPPPAPQRVDSIQVHSSQPSGQAVTVSRQPSLNAYNSLTRSGLKRTPSLKPDVPPKPSFAPLSTSMKPNDACT
notes: also called NOV2r
B2: CG51896-10, intracellular domain, aa 950-1047, Binding Domain (BD) fusion (other, not shown: large carriers)
chain: TLKRNNTNSSNSSHLSRNQSFGRGDNPPPAPQRVDSIQVHSSQPSGQAVTVSRQPSLNAYNSLTRSGLKRTPSLKPDVPPKPSFAPLSTSMKPNDACT
notes: also called NOV2r
B3: CG51896-10, intracellular domain, aa 690-1047, Binding Domain (BD) fusion (other)
chain: VCDHRRKDVAVVQRKEKELTHSRRGSMSSVTKLSGLFGDTQSKDPKPEAILTPLMHNGKLATPGNTAKMLIKADQHHLDLTALPTPESTPTLQQKRKPSRGSREWERNQNLINACTKDMPPMGSPVIPTDLPLRASPSHIPSVVVLPITQQGYQHEYVDQPKMSEVAQMALEDQAATLEYKTIKEHLSSKSPNHGVNLVENLDSLPPKVPQREASLGPPGASLSQTGLSKRLEMHHSSSYGVDYKRSYPTNSLTRSHQATTLKRNNTNSSNSSHLSRNQSFGRGDNPPPAPQRVDSIQVHSSQPSGQAVTVSRQPSLNAYNSLTRSGLKRTPSLKPDVPPKPSFAPLSTSMKPNDACT
notes: also called NOV2r

Biological target: T1, NCK2, aa 1-380, Activation Domain (AD) fusion (human, UniProt O43639 1-380)
T1 construct: range 1-380; Also used for the sentences that name NCK2 as a partner of the cytoplasmic domain
T1 sequence (O43639 whole entry, the tested form may be a part): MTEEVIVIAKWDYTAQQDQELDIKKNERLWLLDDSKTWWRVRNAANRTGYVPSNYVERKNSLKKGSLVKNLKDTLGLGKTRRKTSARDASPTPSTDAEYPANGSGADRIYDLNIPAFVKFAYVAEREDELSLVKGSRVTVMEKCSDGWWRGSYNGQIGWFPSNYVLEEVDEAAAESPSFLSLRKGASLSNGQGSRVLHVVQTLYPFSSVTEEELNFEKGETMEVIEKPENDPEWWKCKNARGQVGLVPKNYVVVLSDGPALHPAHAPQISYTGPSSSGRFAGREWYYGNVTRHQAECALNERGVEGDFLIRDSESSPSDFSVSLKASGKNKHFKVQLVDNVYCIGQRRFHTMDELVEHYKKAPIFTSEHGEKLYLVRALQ
Experiment: yeast two-hybrid matrix mating assay, beta-gal read-out
Method: Matrix Mating Haploid cells for the PathCalling matrix mating assay are grown up individually in 384 well plates using selective liquid media. After 1-2 days, the mating is done entirely in a nutrient rich media. The resulting diploid cells are then selected using a selective liquid media. The optical density (O.D.) of the diploid cells is measured using a spectrophotometer to measure and the cells are then transferred to a fresh plate for a Beta-gal assay. This assay is performed to determine if there is an interaction between the two proteins being tested. The Beta-gal assay is performed as follows:
2. The β-gal buffer is made using the following (per 384 well plate): 7.1 ml Sigma water, 7.5 ml 4X Z-buffer, 0.3 ml 20% IGEPAL, 30 mg CPRG, 75 μl Lyticase (10,000 U/ml) and 3.30 μl of β-gal buffer is added to each well of the plate made in step 1 using a multi-drop 384.

Binding result, binds:
B1
B2
B3
